Reference: US20210388040A1
Blank lines part the entries; values can stand above or below the substance they belong to.

Experiments:
ACTL6A (human) [1] = target: ACTL6A (human) (UniProt O96019); assay: HA-bait purification from HEK-293T nuclear extract, mass spectrometry, peptide count
ACTL6B (human) = ACTL6B (human) (UniProt O94805); assay: as above
ARID2 (human) = ARID2 (human) (UniProt Q68CP9); assay: as above
BCL7A (human) [2] = target: BCL7A (human) (UniProt Q4VC05); assay: as above
BCL7B (human) = BCL7B (human) (UniProt Q9BQE9); assay: as above
Sequence of BCL7B (human) (Q9BQE9 whole entry): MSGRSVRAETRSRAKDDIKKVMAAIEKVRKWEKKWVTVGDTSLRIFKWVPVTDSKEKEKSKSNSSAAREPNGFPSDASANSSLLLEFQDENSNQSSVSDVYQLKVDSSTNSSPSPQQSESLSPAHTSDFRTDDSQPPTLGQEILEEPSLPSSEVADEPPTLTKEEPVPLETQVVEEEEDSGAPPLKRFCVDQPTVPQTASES

BCL7C (human) [3] = target: BCL7C (human) (UniProt Q8WUZ0); assay: as above
DPF2 (human) = DPF2 (human) (UniProt Q92785); assay: as above
PBRM1 (human) = PBRM1 (human) (UniProt Q86U86); assay: as above
PHF10 (human) = PHF10 (human) (UniProt Q8WUB8); assay: as above
SMARCA2 (human) [4] = target: SMARCA2 (human) (UniProt P51531); assay: as above
Sequence of SMARCA2 (human) (P51531 whole entry): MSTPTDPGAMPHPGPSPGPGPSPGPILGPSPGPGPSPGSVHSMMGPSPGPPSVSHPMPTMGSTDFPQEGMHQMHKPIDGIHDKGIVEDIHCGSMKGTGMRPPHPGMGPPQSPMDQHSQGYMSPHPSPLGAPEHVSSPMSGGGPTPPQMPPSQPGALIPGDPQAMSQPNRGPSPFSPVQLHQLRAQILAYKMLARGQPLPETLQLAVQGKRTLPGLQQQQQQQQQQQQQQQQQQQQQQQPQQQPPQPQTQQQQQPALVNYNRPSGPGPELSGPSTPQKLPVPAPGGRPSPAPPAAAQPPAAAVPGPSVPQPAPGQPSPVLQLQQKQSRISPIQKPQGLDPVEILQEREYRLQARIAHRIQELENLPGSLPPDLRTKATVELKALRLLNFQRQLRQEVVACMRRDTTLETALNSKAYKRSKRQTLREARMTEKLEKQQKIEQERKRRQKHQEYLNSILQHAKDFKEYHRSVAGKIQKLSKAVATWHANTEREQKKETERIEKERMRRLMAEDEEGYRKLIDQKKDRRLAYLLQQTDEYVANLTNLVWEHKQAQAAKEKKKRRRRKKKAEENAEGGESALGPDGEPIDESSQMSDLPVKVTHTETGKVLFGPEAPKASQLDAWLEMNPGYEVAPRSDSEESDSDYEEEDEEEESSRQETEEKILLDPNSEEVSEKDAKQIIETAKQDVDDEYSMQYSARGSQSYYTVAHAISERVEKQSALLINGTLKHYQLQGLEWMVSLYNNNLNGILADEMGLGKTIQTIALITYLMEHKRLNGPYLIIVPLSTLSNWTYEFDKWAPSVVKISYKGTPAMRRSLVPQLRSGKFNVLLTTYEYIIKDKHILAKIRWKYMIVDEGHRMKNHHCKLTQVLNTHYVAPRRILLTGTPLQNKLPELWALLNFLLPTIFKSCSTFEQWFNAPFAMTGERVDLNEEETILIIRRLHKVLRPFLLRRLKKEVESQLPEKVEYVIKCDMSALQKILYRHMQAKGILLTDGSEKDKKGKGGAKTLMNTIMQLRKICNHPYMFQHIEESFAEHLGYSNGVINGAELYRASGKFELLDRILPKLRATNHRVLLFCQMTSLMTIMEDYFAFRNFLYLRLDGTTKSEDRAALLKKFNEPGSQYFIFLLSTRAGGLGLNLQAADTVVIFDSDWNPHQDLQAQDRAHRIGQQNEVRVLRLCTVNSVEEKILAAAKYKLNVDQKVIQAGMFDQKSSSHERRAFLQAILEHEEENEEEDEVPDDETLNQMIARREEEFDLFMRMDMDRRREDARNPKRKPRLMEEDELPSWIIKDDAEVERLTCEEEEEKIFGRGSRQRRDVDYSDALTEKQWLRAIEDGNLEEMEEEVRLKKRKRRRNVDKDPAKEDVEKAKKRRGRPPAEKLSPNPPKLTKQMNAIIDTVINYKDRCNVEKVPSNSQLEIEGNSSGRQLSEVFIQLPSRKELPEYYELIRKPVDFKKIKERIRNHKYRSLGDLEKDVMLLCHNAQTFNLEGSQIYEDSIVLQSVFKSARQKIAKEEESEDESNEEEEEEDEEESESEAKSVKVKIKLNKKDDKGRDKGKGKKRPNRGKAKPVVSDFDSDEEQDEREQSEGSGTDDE

SMARCA4 (human) [5] = target: SMARCA4 (human) (UniProt P51532); assay: as above
SMARCB1 (human) [6] = target: SMARCB1 (human) (UniProt Q12824); assay: as above
Sequence of SMARCB1 (human) (Q12824 whole entry): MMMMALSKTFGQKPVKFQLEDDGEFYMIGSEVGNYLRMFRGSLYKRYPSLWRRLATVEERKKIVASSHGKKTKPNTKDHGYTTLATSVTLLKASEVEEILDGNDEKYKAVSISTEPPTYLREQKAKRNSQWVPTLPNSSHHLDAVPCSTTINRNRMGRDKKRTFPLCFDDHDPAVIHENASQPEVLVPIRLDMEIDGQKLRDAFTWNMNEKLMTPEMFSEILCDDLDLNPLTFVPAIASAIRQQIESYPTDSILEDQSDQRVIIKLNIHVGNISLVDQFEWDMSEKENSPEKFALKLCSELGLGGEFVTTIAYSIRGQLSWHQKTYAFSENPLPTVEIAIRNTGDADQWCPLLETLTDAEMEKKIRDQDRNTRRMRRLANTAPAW

SMARCC1 (human) [7] = target: SMARCC1 (human) (UniProt Q92922); assay: as above
SMARCC2 (human) [8] = target: SMARCC2 (human) (UniProt Q8TAQ2); assay: as above
Sequence of SMARCC2 (human) (Q8TAQ2 whole entry): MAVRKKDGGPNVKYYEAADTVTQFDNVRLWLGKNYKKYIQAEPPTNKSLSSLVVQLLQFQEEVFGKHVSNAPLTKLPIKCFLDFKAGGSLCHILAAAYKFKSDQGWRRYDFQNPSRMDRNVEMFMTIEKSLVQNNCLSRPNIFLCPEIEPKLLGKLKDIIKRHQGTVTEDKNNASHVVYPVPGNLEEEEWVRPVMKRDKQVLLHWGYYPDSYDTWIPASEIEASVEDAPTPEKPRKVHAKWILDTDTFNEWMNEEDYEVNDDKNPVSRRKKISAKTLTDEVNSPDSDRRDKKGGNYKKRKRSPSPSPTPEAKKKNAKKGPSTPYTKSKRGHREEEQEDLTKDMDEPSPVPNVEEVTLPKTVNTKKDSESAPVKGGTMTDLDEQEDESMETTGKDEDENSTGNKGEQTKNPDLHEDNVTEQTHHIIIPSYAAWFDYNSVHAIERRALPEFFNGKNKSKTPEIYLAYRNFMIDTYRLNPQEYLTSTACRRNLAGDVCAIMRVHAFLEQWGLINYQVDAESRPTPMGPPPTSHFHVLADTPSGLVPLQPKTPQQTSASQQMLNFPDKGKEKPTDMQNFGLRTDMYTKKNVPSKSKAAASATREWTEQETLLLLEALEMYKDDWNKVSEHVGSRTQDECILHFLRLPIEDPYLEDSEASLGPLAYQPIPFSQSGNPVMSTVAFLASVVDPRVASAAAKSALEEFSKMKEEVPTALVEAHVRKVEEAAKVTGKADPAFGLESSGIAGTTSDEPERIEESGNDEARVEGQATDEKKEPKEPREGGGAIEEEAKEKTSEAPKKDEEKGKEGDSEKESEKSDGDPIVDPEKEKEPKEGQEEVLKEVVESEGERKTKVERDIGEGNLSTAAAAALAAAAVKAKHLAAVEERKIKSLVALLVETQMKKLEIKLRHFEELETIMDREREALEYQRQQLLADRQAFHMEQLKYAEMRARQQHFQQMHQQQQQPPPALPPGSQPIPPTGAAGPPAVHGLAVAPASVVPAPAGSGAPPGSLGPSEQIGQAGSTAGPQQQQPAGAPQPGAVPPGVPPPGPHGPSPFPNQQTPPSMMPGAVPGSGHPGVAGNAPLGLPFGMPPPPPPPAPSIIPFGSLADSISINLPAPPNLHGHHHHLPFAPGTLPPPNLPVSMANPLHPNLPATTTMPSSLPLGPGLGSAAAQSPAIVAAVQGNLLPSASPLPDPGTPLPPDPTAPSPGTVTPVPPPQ

SMARCD2 (human) [9] = target: SMARCD2 (human) (UniProt Q92925); assay: as above
SMARCD3 (human) [10] = target: SMARCD3 (human) (UniProt Q6STE5); assay: as above
SMARCE1 (human) [11] = target: SMARCE1 (human) (UniProt Q969G3); assay: as above
Sequence of SMARCE1 (human) (Q969G3 whole entry): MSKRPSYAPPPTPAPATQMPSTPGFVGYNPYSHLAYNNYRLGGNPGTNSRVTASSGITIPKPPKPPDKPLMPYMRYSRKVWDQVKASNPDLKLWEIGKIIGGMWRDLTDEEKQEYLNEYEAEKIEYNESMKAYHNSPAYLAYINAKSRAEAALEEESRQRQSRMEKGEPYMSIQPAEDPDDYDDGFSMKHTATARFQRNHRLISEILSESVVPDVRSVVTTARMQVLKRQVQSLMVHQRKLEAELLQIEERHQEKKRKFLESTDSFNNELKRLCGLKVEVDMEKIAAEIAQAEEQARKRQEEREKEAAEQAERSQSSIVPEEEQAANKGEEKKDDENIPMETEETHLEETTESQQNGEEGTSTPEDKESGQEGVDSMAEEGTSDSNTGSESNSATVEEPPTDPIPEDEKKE

GLTSCR1 (human) = GLTSCR1 (human) (UniProt Q9NZM4); assay: as above
GLTSCR1L (human) = GLTSCR1L (human) (UniProt Q6AI39); assay: as above
SMARCD1 (human) [12] = target: SMARCD1 (human) (UniProt Q96GM5); assay: as above
Sequence of SMARCD1 (human) (Q96GM5 whole entry): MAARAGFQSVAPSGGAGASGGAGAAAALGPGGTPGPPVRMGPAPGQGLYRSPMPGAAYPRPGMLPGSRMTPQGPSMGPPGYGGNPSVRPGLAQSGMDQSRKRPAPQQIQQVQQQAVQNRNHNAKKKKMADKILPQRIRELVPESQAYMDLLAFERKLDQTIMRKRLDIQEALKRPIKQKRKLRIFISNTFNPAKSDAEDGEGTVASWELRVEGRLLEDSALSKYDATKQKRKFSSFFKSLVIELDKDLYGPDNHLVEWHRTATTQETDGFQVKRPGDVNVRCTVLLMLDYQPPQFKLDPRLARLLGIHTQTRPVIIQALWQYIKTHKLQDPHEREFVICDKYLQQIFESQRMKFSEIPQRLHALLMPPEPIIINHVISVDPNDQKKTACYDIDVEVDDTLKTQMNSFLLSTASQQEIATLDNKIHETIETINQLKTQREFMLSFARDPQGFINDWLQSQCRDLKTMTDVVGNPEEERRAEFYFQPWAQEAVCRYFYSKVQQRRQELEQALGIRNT

SS18 (human) [13] = target: SS18 (human) (UniProt Q15532); assay: as above
Sequence of SS18 (human) (Q15532 2-418 limits assumed): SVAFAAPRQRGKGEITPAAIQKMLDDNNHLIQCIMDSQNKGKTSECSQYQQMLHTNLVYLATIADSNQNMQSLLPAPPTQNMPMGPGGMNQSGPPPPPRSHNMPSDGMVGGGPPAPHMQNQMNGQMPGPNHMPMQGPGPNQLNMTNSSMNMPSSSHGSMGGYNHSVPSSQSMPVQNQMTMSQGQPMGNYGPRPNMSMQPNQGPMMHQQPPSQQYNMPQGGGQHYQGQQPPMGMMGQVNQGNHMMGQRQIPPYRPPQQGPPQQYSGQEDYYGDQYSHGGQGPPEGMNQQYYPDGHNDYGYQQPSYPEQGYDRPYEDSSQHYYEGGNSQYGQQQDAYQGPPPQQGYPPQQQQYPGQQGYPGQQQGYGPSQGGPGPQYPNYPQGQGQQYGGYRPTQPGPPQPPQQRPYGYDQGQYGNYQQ

ACTL6A (human) [14] = target: ACTL6A (human) (UniProt O96019); assay: HA-bait purification from HEK-293T nuclear extract, glycerol gradient fractions 13-14, mass spectrometry, peptide count
ARID1A (human) = ARID1A (human) (UniProt O14497); assay: as above
ARID1B (human) = ARID1B (human) (UniProt Q8NFD5); assay: as above
BCL7A (human) [15] = target: BCL7A (human) (UniProt Q4VC05); assay: as above
BCL7C (human) [16] = target: BCL7C (human) (UniProt Q8WUZ0); assay: as above
SMARCA2 (human) [17] = target: SMARCA2 (human) (UniProt P51531); assay: as above
SMARCA4 (human) [18] = target: SMARCA4 (human) (UniProt P51532); assay: as above
SMARCB1 (human) [19] = target: SMARCB1 (human) (UniProt Q12824); assay: as above
SMARCC1 (human) [20] = target: SMARCC1 (human) (UniProt Q92922); assay: as above
SMARCC2 (human) [21] = target: SMARCC2 (human) (UniProt Q8TAQ2); assay: as above
SMARCD1 (human) [22] = target: SMARCD1 (human) (UniProt Q96GM5); assay: as above
SMARCD2 (human) [23] = target: SMARCD2 (human) (UniProt Q92925); assay: as above
SMARCD3 (human) [24] = target: SMARCD3 (human) (UniProt Q6STE5); assay: as above
SMARCE1 (human) [25] = target: SMARCE1 (human) (UniProt Q969G3); assay: as above
SS18 (human) [26] = target: SS18 (human) (UniProt Q15532); assay: as above
SS18L1 (human) = SS18L1 (human) (UniProt O75177); assay: as above

Sequence of BCL7A (human) (Q4VC05 whole entry): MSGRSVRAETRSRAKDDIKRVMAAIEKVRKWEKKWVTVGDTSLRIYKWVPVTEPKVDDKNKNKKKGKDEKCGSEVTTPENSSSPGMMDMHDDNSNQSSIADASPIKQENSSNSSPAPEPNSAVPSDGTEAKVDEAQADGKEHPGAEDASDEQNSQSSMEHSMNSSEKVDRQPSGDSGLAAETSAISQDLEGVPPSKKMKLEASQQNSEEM

Total (ACTL6A (human) [1]): 44 peptides
Unique (ACTL6A (human) [1]): 28 peptides
Total (ACTL6B (human)): 1 peptides
Unique (ACTL6B (human)): 1 peptides
Total (ARID2 (human)): 157 peptides
Unique (ARID2 (human)): 67 peptides
Total (BCL7A (human) [2]): 36 peptides
Unique (BCL7A (human) [2]): 21 peptides
Total (BCL7B (human)): 4 peptides
Unique (BCL7B (human)): 3 peptides
Total (BCL7C (human) [3]): 17 peptides
Unique (BCL7C (human) [3]): 10 peptides
Total (DPF2 (human)): 1 peptides
Unique (DPF2 (human)): 1 peptides
Total (PBRM1 (human)): 404 peptides
Unique (PBRM1 (human)): 147 peptides
Total (PHF10 (human)): 58 peptides
Unique (PHF10 (human)): 31 peptides
Total (SMARCA2 (human) [4]): 146 peptides
Unique (SMARCA2 (human) [4]): 85 peptides
Total (SMARCA4 (human) [5]): 107 peptides
Unique (SMARCA4 (human) [5]): 53 peptides
Total (SMARCB1 (human) [6]): 59 peptides
Unique (SMARCB1 (human) [6]): 26 peptides
Total (SMARCC1 (human) [7]): 203 peptides
Unique (SMARCC1 (human) [7]): 83 peptides
Total (SMARCC2 (human) [8]): 136 peptides
Unique (SMARCC2 (human) [8]): 64 peptides
Total (SMARCD2 (human) [9]): 59 peptides
Unique (SMARCD2 (human) [9]): 34 peptides
Total (SMARCD3 (human) [10]): 23 peptides
Unique (SMARCD3 (human) [10]): 20 peptides
Total (SMARCE1 (human) [11]): 81 peptides
Unique (SMARCE1 (human) [11]): 40 peptides
Substance: HA-BRD7 (from UniProt Q9NPI1 1-651)

Unique (ACTL6A (human) [1]): 10 peptides
Total (BCL7A (human) [2]): 6 peptides
Unique (BCL7A (human) [2]): 5 peptides
Total (BCL7C (human) [3]): 3 peptides
Unique (BCL7C (human) [3]): 3 peptides
Total (GLTSCR1 (human)): 62 peptides
Unique (GLTSCR1 (human)): 33 peptides
Total (GLTSCR1L (human)): 16 peptides
Unique (GLTSCR1L (human)): 14 peptides
Total (SMARCA2 (human) [4]): 49 peptides
Unique (SMARCA2 (human) [4]): 27 peptides
Total (SMARCA4 (human) [5]): 31 peptides
Unique (SMARCA4 (human) [5]): 20 peptides
Total (SMARCC1 (human) [7]): 53 peptides
Unique (SMARCC1 (human) [7]): 36 peptides
Total (SMARCD1 (human) [12]): 33 peptides
Unique (SMARCD1 (human) [12]): 22 peptides
Total (SS18 (human) [13]): 1 peptides
Unique (SS18 (human) [13]): 1 peptides
Substance: HA-BRD9 (from UniProt Q9H8M2 1-597)

Total (ACTL6A (human) [14]): 61 peptides
Unique (ACTL6A (human) [14]): 23 peptides
Total (ARID1A (human)): 311 peptides
Unique (ARID1A (human)): 114 peptides
Total (ARID1B (human)): 147 peptides
Unique (ARID1B (human)): 85 peptides
Total (BCL7A (human) [15]): 36 peptides
Total (BCL7C (human) [16]): 13 peptides
Unique (BCL7C (human) [16]): 7 peptides
Total (SMARCA2 (human) [17]): 130 peptides
Unique (SMARCA2 (human) [17]): 74 peptides
Total (SMARCA4 (human) [18]): 88 peptides
Unique (SMARCA4 (human) [18]): 47 peptides
Total (SMARCB1 (human) [19]): 62 peptides
Unique (SMARCB1 (human) [19]): 22 peptides
Total (SMARCC1 (human) [20]): 359 peptides
Unique (SMARCC1 (human) [20]): 87 peptides
Total (SMARCC2 (human) [21]): 105 peptides
Unique (SMARCC2 (human) [21]): 52 peptides
Total (SMARCD1 (human) [22]): 83 peptides
Unique (SMARCD1 (human) [22]): 37 peptides
Total (SMARCD2 (human) [23]): 51 peptides
Unique (SMARCD2 (human) [23]): 32 peptides
Total (SMARCD3 (human) [24]): 23 peptides
Unique (SMARCD3 (human) [24]): 20 peptides
Total (SMARCE1 (human) [25]): 118 peptides
Unique (SMARCE1 (human) [25]): 40 peptides
Total (SS18 (human) [26]): 2 peptides
Unique (SS18 (human) [26]): 2 peptides
Total (SS18L1 (human)): 3 peptides
Unique (SS18L1 (human)): 2 peptides
Substance: HA-DPF2 (from UniProt Q92785 1-391)
